B1: ZNF449 (parent)
chain: HTGERPYECTVCKKRFTRRSHLIG
B2: KRT13 (parent)
chain: TSSASVTTTSNASGRRTSDVRRP

Variants of: B1
Assay: protein stability index of a GFP-peptide fusion (GPS, HEK-293T) (PSI 1-6); higher = more stable
Conditions: c terminus: a fixed tail appended
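Further: lentivirally expressed fusions sorted by FACS into six bins by GFP to DsRed ratio, PSI derived from sequencing read proportions per bin multiplied by bin number.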

Protein stability index, by site and new letter:
L22: S 2.92, W 2.66, N 2.08, C 3.46, A 3.16, D 2.6, R 3.15, V 3.02, I 2.23, H 3, E 3.43, K 2.35, Y 2.33, F 1.3, M 1.86
C12: N 3.42, D 3.99, V 2.76, R 3.79, L 1.55, K 3.98, M 4.64, S 3.39, Y 3.2
H21: A 2.22, F 1.83, V 2.97, S 2.93, N 2.39, R 2.37, L 3.45, P 3.26, T 2.83, E 2.31
V11: I 1.58, F 1.47, D 2.44, Y 2.64, Q 3.12, G 2.99, C 2.29, K 3.82, P 2.58, T 3.47, R 2.39, N 2.8
R5: S 2.7, K 1.99, E 2.33, A 1.96, F 1.76, C 3.5, P 2.01, I 2.19, T 3, Y 2.82, L 2.09, N 1.64, H 2.67
G3: P 2.52, C 3.04, K 2.2, Q 3.59, W 2.43, E 2.26
R15: T 2.52, E 2.04, F 1.72, I 2.1, W 2.56, L 1.39, D 2.09, S 1.52, N 2.58, Y 1.09, H 3.03, M 2.51
P6: R 1.82, G 2.77, L 1.58, I 2.08, F 1.75, A 2.67, N 2.3, Y 2.22, M 2.74, Q 3.29
T10: D 1.97, P 1.82, Y 3.04, W 1.3, C 2.54, S 2.52, I 3.07, V 1.39, L 2.37, F 2.88
I23: L 2, C 3.61, F 2.42, S 2.55, D 2.8, H 3.06, T 2.41, A 2.64, P 2.23, G 1.81
Y7: A 2.8, Q 2.21, H 2.06, S 2.28, C 3.74, F 1.44, I 2.62, M 2.11, D 2.6, L 3.39, P 2.07, T 2.71, R 2.12, W 1.4
H1: A 2.47, G 1.83, V 2.39, S 1.85, W 2, K 2.6, L 1.79, D 2.19, T 1.7, F 1.78
K14: L 1.66, P 1.97, G 1.44, V 2.09, H 2.58, A 1.89, M 1.61, I 2.26, D 2.29, Q 1.75, E 1.73
S20: V 1.99, H 2.37, L 2.44, T 2.18, Q 1.88, F 1.9, W 3.27, R 2.9, C 1.86, A 1.44
K13: C 1.06, V 3.25, L 2.09, Q 2, N 1.78, P 2.86, W 2.62, I 2.06, T 2.33, Y 2.47
G24: P 1.95, C 2.48, M 1.83, T 2.45, R 2.39, H 1.89, D 2.81, W 2.53, K 3.12, S 2.61, F 1.2, Y 2.9
F16: R 2.89, I 1.71, Q 2.4, N 2.72, M 1.89, H 3.32, Y 1.99, W 1.96, L 1.67, P 3.2, D 3, S 2.51
C9: D 4.05, Q 3.64, W 3.62, S 3.69, G 3.94, H 3.03, I 3.17, M 2.8, F 2.39, A 3.85, E 3.31, L 2.83
E4: Q 2.66, K 1.7, W 1.8, P 2.04, H 2.17, G 1.55, T 2.76, L 1.5, R 1.96, Y 1.58, V 2.02, M 2.24, C 2.26, F 1.9, I 1.66
T17: A 2.19, S 1.94, L 2.19, E 2.63, K 2.52, V 1.92, C 4.7, P 1.78, M 1.22, D 1.9, H 3.25, F 1.51
R18: I 2.7, M 1.5, S 2.5, N 1.62, K 1.97
T2: I 1.47, N 2.13, P 1.8, G 2.55, L 2.45, M 1.76, D 2.23, W 2.13, K 2.4, V 1.97, F 2.08, H 3.18, Q 2.24
R19: C 4.07, I 1.39, G 2.22, L 1.53, Y 2.1, S 2.76, M 1.53, E 2.01, Q 2.34, A 1.71, T 1.84, H 1.96, D 1.62, P 1.94
E8: S 2.32, R 2.22, K 1.96, V 2.35, H 2.12, Q 2.76, G 1.84, N 1.79, W 2.23, T 2

Variants of: B2
Assay: as above
Conditions: c terminus: native

Protein stability index of substitutions, site by site:
V20: E 2.52, A 1.63, P 2.31, G 2.03, N 2.13, D 1.76, I 4.34, K 2.73, T 4.51, C 2.16, Y 2.38, Q 2.06, H 2.51
R21: F 5.07, Y 5.15, T 5.55, C 4.97, H 5.55, K 5.25, D 5.12, E 5.51, P 5.33, I 4.91, L 4.89, S 5.41, A 5.32, N 5.24, M 5.27, W 5.35, Q 5.75, V 4.97
D19: Y 1.92, T 2.69, V 3.02, S 2.07
R22: N 3.07, S 1.88, Q 2.71, W 2.04, K 2.13, E 1.75, T 1.84, H 3.45, Y 1.75, M 3.05, P 2.62, A 2.49, V 2.08, D 1.93, L 1.38, I 2.77
P23: Q 3.43, M 4.45, W 4.6, G 3.15, I 4.47, K 4.84, L 4.45, S 2.36, N 2.27, H 1.77, F 4.92, E 1.59, Y 4.86, T 4.53, R 3.9, C 2.42
